In the series the target is T1, NtrX D53E (His-NtrXD53E) (Sinorhizobium meliloti 1021, UniProt Q92Q87 1-454, D53E).
T1 sequence: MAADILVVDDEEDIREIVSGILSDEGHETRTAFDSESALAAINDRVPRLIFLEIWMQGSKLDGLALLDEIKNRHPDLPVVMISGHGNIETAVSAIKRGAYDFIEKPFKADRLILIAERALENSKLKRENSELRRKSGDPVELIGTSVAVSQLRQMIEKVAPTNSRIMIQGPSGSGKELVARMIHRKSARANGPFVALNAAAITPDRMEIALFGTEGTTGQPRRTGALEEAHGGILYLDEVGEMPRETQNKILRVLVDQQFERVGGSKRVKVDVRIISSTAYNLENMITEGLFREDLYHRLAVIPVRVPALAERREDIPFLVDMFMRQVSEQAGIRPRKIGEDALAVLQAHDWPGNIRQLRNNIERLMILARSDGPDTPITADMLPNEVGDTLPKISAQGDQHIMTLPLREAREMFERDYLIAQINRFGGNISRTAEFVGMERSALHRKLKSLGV
Nature of the series: EMSA; 5 mM Mg2+; almost no complex; EMSA, 20 uL: 3, 6, 15 ng NtrX, 2 nM probe (2 or 40 nM in Methods), 1x binding buffer, 5 mM MgCl2, 50 ng/uL poly(dI-dC), 0.05% NP-40, 1% glycerol, 30 min at 28 C; pH and salt of binding buffer not stated (phosphorylation in 50 mM Tris-HCl pH 7.6, 50 mM KCl, 20 mM MgCl2 nominal 1x). The note with it: protein: recombinant; tags: His (pET28b); chain copies: 2; label: biotin; blunt.

The record followed here is publication PMC9223101, “Transcription Regulation of Cell Cycle Regulatory Genes Mediated by NtrX to Affect Sinorhizobium meliloti Cell Division”.

B1: ntrY promoter probe (dsDNA)
DNA 1: GCGCTTGACTGAGATGCAACACCGTTGCATTTTCGCCACAATGCGTTGCTTGAACCTCGCATAAGCGTCGATTCGCCGGC
DNA 2: GCCGGCGAATCGACGCTTATGCGAGGTTCAAGCAACGCATTGTGGCGAAAATGCAACGGTGTTGCATCTCAGTCAAGCGC
On to B1, for which the binding result is reported as “no binding”.
